B1: HDV Ribozyme (parent)
chain: GGCCGGCAUGGUCCCAGCCUCCUCGCUGGCGCCGGCUGGGCAACAUUCCGAGGGGACCGUCCCCUCGGUAAUGGCGAAUGGGACCCA

Variants of: B1
Assay: self-cleavage, relative activity (ratio to wild type); higher = more cleavage; co-transcriptional

In order of falling self-cleavage:
1. U37C C49A  1.31
2. U37C C41U  1.29
3. U37C U60A  1.27
4. U37C G52A  1.25
5. U37C C66A  1.25
6. U37C G59U  1.25
7. U37C A70G  1.23
8. U37C A56G  1.23
9. U37C C58A  1.22
10. U37C C64U  1.19
11. U37C U69G  1.19
12. U37C C85A  1.16
13. U37C G59C  1.16
14. U37C G53U  1.13
15. U37C C48A  1.13
16. U37C G54C  1.13
17. U37C G55U  1.13
18. U37C G54A  1.11
19. U37C A56U  1.09
20. U37C G68U  1.05
21. U37C U65C  1.05
22. U37C C62A  1.05
23. U37C C48G  1.04
24. U37C A77G  1.03
25. U37C C63A  1.03
26. U37C G54U  1.02
27. U37C C85U  1.01
28. U37C G67A  1
29. U37C C57A  1
30. U37C C58U  0.997
31. U37C G52U  0.997
32. U37C G76A  0.972
33. U37C A51C  0.966
34. U37C C63G  0.965
35. U37C C85G  0.95
36. U37C U65A  0.929
37. U37C C41A  0.929
38. U37C C49U  0.928
39. U37C A51U  0.923
40. U37C G50U  0.923
41. U37C A71C  0.917
42. U37C U46C  0.914
43. U37C U69A  0.9
44. U37C C61U  0.884
45. U37C C57U  0.875
46. U37C C58G  0.872
47. U37C U60C  0.864
48. U37C A71U  0.807
49. U37C A42G  0.795
50. U37C U46G  0.787
51. U37C A45G  0.762
52. U37C A71G  0.751
53. U37C C84A  0.697
54. U37C G68C  0.682
55. U37C C44G  0.63
56. U37C C64G  0.604
57. U37C C84G  0.587
58. U37C U79A  0.554
59. U37C A45C  0.539
60. U37C C44A  0.499
61. U37C G73A  0.493
62. U37C U79G  0.465
63. U37C U72C  0.462
64. U37C G40U  0.456
65. U37C U72G  0.429
66. U37C A77C  0.415
67. U37A A77G  0.415
68. U37A U69C  0.415
69. U37A C58U  0.405
70. U37C A77U  0.388
71. U37C A83C  0.383
72. U37A G68A  0.381
73. U37C U72A  0.356
74. U37C G73C  0.356
75. U37A C64G  0.354
76. U37A A56U  0.332
77. C36U U79G  0.325
78. U37A A87U  0.325
79. C36U U72A  0.324
80. U37A G54C  0.308
81. U37C A43C  0.308
82. U37A G53U  0.302
83. U37A G55C  0.299
84. U37C G81A  0.283
85. U37A G67U  0.272
86. U37C G40C  0.262
87. U37A C85U  0.259
88. U37A C41A  0.237
89. U37A G59A  0.237
90. U37A C48U  0.237
91. U37A A56C  0.229
92. U37G A70U  0.229
93. U37A G81C  0.227
94. U37A C58A  0.225
95. U37A U65C  0.225
96. U37A G73U  0.225
97. U37A G59C  0.224
98. U37A A51C  0.217
99. U37A G67A  0.215
100. U37A G52U  0.214
101. U37C G81U  0.211
102. U37G A43U  0.208
103. U37A U47A  0.201
104. U37A C49G  0.201
105. U37A A70U  0.196
106. U37C G74C  0.193
107. U37A U60C  0.192
108. U37A U46A  0.185
109. U37C G73U  0.185
110. U37A C64U  0.185
111. U37C C75A  0.177
112. U37A C63G  0.17
113. U37A A87C  0.17
114. U37A G74A  0.166
115. U37A C66G  0.158
116. U37A G40U  0.157
117. U37A C49U  0.155
118. U37A C62G  0.151
119. U37A G38U  0.151
120. U37A C48G  0.148
121. U37A G80A  0.145
122. U37A G52A  0.145
123. U37C G81C  0.138
124. U37G A43C  0.133
125. U37A A78G  0.131
126. U37A U46G  0.128
127. U37A C75U  0.128
128. U37A G50U  0.128
129. U37A C84A  0.128
130. U37A A71G  0.128
131. U37A A45G  0.125
132. U37A C63A  0.116
133. U37A U60A  0.111
134. U37A A56G  0.107
135. U37A A77U  0.104
136. U37A U69A  0.101
137. U37C C75U  0.0997
138. U37A A87G  0.0989
139. U37A G81U  0.0875
140. U37A G38A  0.086
141. U37A U46C  0.0852
142. U37A C75G  0.0852
143. U37C G38U  0.0773
144. U37A G80U  0.0727
145. U37G A42G  0.0723
146. U37A C75A  0.0707
147. U37G A45G  0.0692
148. U37A A42G  0.0665
149. U37A A70C  0.0639
150. U37C C75G  0.0627
151. U37A U79C  0.0623
152. U37A G53A  0.0594
153. U37A G40C  0.0519
154. U37G A51C  0.0504
155. U37A G50C  0.0489
156. U37A A77C  0.0426
157. U37A G68C  0.0405
158. U37A G82C  0.0405
159. U37A G73C  0.0378
160. U37A C85G  0.0346
161. U37A G73A  0.0346
162. U37G A51U  0
163. U37A G39C  0
164. U37A U72C  0
165. U37G A70G  0
166. U37G A43G  0
167. U37A U79G  0

Reference: the RNAGym collection of RNA variant scans (doi:10.7554/elife.80360)
